# Positions count from the first letter of the chain named.
# T1: recombinant human IL-23 (hrIL-23), produced at Centocor (human, UniProt P29460 23-328)
# T1 construct: p19-p40 heterodimer; also called rhIL-23; huIL-23
# T1 sequence 1: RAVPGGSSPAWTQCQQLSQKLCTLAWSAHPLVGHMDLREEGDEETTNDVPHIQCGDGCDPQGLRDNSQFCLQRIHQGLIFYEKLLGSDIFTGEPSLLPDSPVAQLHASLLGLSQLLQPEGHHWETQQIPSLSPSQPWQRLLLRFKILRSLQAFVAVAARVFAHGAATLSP
# T1 sequence 2: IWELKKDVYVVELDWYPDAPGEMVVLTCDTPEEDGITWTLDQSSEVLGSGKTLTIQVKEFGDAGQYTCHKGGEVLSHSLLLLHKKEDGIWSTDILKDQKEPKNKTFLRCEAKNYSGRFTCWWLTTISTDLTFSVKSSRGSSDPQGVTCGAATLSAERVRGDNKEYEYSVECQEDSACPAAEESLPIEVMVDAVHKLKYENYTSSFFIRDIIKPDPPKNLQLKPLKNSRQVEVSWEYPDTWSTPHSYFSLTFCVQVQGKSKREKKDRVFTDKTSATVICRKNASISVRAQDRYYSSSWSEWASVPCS
# T2: recombinant human IL-12 (hrIL-12), produced at Centocor (human, UniProt P29459 23-219; P29460 23-328)
# T2 construct: also called IL-12 CNTO
# T2 sequence (looked up) 1: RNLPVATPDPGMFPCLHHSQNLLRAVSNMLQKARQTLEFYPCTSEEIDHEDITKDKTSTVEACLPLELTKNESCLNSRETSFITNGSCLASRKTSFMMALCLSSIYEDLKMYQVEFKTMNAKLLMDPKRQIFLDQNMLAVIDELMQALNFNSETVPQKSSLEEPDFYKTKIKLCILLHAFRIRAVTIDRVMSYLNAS
# T2 sequence (looked up) 2: T1 sequence 2
# B1: MOR04649 Fab (Fab, V domains shown)
# VH: QVQLVQSGAEVKKPGESLKISCKGSGYSFSNYWIGWVRQMPGKGLEWMGIIDPSNSYTNYSPSFQGQVTISADKSISTAYLQWSSLKASDTAMYYCARWYYKPFDVWGQGTLVTVSS
# VL: DIVLTQPPSVSGAPGQRVTISCTGSSSNIGSGYDVHWYQQLPGTAPKLLIYGNSKRPSGVPDRFSGSKSGTSASLAITGLQSEDEADYYCSSWTPSSVVFGGGTKLTVL
# notes: Fab
# B2: MOR04205 Fab (Fab, V domains shown)
# VH: QVQLVQSGAEVKKPGESLKISCKGSGYSFTNYWISWVRQAPGKGLEWMGWIRPGDSDTRYSPSFEGQVTISADKSISTAYLQWSSLKASDTAMYYCARHYYGMDYWGQGTLVTVSS
# VL: DIVLTQPPSVSGAPGQRVTISCSGSSSNIGSYYVNWYQQLPGTAPKLLIYGNTHRPSGVPDRFSGSKSGTSASLAITGLQSEDEADYYCQTYASLGPGEVFGGGTKLTVL
# notes: Fab
# B3: MOR04083 Fab (Fab, V domains shown)
# VH: QVQLVQSGAEVKKPGSSVKVSCKASGGTFSNYAISWVRQAPGQGLEWMGGIIPMFGYANYAQKFQGRVTITADESTSTAYMELSSLRSEDTAVYYCARDIYAGMDVWGQGTLVTVSS
# VL: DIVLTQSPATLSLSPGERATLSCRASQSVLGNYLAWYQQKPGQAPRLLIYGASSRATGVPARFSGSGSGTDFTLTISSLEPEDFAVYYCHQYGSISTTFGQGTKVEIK
# notes: Fab
# B4: MOR04658 Fab (Fab, V domains shown)
# VH: QVQLVESGGGLVQPGGSLRLSCAASGFTFSSFGMSWVRQAPGKGLEWVSNISSSGSSTYYADSVKGRFTISRDNSKNTLYLQMNSLRAEDTAVYYCARYWGTPYLMQFDNWGQGTLVTVSS
# VL: DIALTQPASVSGSPGQSITISCTGTSSDVGGYNSVSWYQQHPGKAPKLMIYSVSSRPSGVSNRFSGSKSGNTASLTISGLQAEDEADYYCSSYDTNKPLVVFGGGTKLTVL
# notes: Fab
# B5: MOR04190 Fab (Fab, V domains shown)
# VH: QVQLVQSGAEVKKPGSSVKVSCKASGGTFSSNYISWVRQAPGQGLEWMGGIIPIFGHANYAQKFQGRVTITADESTSTAYMELSSLRSEDTAVYYCARSKKGMYGGWTYPLMMFDLWGQGTLVTVSS
# VL: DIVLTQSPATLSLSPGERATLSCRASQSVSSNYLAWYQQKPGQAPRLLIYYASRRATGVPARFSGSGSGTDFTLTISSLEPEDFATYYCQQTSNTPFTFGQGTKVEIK
# notes: Fab
# B6: MOR04217 Fab (Fab, V domains shown)
# VH: QVQLVESGGGLVQPGGSLRLSCAASGFTFSSYWITWVRQAPGKGLEWVSYISSSGSSTYYADSVKGRFTISRDNSKNTLYLQMNSLRAEDTAVYYCARGTFWSFGNYFANWGQGTLVTVSS
# VL: DIVLTQSPATLSLSPGERATLSCRASQSIFYNLAWYQQKPGQAPRLLIYGASNRATGVPARFSGSGSGTDFTLTISSLEPEDFATYYCQQYSSEPVTFGQGTKVEIK
# notes: Fab
# B7: MOR05042 Fab (Fab, V domains shown)
# VH: B1 VH with D52S, S54T, N55G, Y57S, N59W
# VL: B1 VL
# notes: Fab
# B8: MOR05045 Fab (Fab, V domains shown)
# VH: B1 VH with D52S, S54T, N55G, Y57A, N59W
# VL: B1 VL
# notes: Fab
# B9: MOR05028 Fab (Fab, V domains shown)
# VH: B3 VH with M54V, Y57F, A58T, N59H
# VL: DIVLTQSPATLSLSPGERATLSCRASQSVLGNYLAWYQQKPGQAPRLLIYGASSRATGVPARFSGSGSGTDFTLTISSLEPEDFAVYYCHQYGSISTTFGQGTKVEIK
# notes: Fab
# B10: MOR05038 Fab (Fab, V domains shown)
# VH: QVQLVQSGAEVKKPGSSVKVSCKASGGTFSSNYISWVRQAPGQGLEWMGINAHLGGTWYAQKFQGRVTITADESTSTAYMELSSLRSEDTAVYYCARSKKGMYGGWTYPLMMFDLWGQGTLVTVSS
# VL: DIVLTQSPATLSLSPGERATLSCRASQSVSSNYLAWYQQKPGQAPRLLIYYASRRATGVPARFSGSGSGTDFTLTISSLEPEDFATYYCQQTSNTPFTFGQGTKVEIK
# notes: Fab
# B11: MOR05049 Fab (Fab, V domains shown)
# VH: QVQLVESGGGLVQPGGSLRLSCAASGFTFSSFGMSWVRQAPGKGLEWVSGIEHKYLSYTTHYAASVKGRFTISRDNSKNTLYLQMNSLRAEDTAVYYCARYWGTPYLMQFDNWGQGTLVTVSS
# VL: B4 VL
# notes: Fab
# B12: MOR05061 Fab (Fab, V domains shown)
# VH: B4 VH
# VL: B4 VL with D94Y, T95F, N96Y, K97L, P98Q, L99R, V100I
# notes: Fab
# B13: MOR05062 Fab (Fab, V domains shown)
# VH: B4 VH
# VL: B4 VL with S91Q, S92T, D94Y, T95F, N96S, K97Y, P98S, L99G, V100P
# notes: Fab
# B14: MOR05063 Fab (Fab, V domains shown)
# VH: B4 VH
# VL: B4 VL with S91G, Y93W, T95P, N96I, K97F, P98S, L99Y, V100E
# notes: Fab
# B15: MOR05052 Fab (Fab, V domains shown)
# VH: B11 VH with G50S, H61F
# VL: B4 VL
# notes: Fab
# B16: MOR05055 Fab (Fab, V domains shown)
# VH: B11 VH with G50N, S57G, T59A, H61V
# VL: B4 VL
# notes: Fab
# B17: MOR05060 Fab (Fab, V domains shown)
# VH: B4 VH
# VL: B4 VL with S91G, T95V, N96Y, K97G, P98R, L99F, V100Y
# notes: Fab
# B18: MOR05056 Fab (Fab, V domains shown)
# VH: B11 VH with G50S, T59A, H61Y, S65G
# VL: B4 VL
# notes: Fab
# Biological target: T1, recombinant human IL-23 (hrIL-23), …
# Assay: hrIL-23/hIL-23R competition assay
row,IC50 [nM],Binder
1,0.2,B1
2,38,B2
3,4.6,B3
4,0.7,B4
5,4.8,B5
6,16,B6

# Biological target: T1, recombinant human IL-23 (hrIL-23), …
# Assay: IL-23/IL-23R competition assay
row,IC50 [nM],Binder
1,0.06,B7
2,1.2,B1
3,0.05,B8
4,7.1,B3
5,0.43,B9
6,0.17,B10
7,1.3,B5

# Biological target: T1, recombinant human IL-23 (hrIL-23), …
# Assay: SET
row,Kd [nM],Binder
1,0.007,B11
2,4.3,B4
3,0.058,B12
4,0.098,B13
5,0.069,B14
6,0.01,B15
7,0.029,B16
8,0.142,B17
9,0.065,B18

# Biological target: T1, recombinant human IL-23 (hrIL-23), …
# Assay: SET
# Remark: another data set of the same source
row,Kd [nM],Binder
1,0.004,B7
2,1.1,B1
3,0.009,B8
4,1.6,B3
5,0.133,B9
6,0.038,B10
7,4.4,B5

# Biological target: T1, recombinant human IL-23 (hrIL-23), …
# Assay: Biacore, Fab capture
row,Kd [nM],Binder
1,7,B1
2,140,B2
3,16,B3
4,11,B4
5,11,B5
6,41,B6

# Biological target: T1, recombinant human IL-23 (hrIL-23), …
# Assay: IL-23/IL-23R competition assay
# Remark: another data set of the same source
row,IC50 [nM],Binder
1,0.39,B11
2,14,B4
3,1.25,B12
4,1.34,B13
5,0.32,B14
6,0.58,B15
7,0.79,B16
8,1,B17
9,0.52,B18

# Biological target: T2, recombinant human IL-12 (hrIL-12), …
# Assay: not told
row,binding result,Binder
1,no binding,B7
2,no binding,B8
3,no binding,B9
4,no binding,B10
5,no binding,B11
